{"source": "paper doi:10.1101/2025.09.16.676546", "target": "E.amu APN ectodomain, His-tagged (for cryo-EM) (Erinaceus amurensis)", "experiment": "cryo-EM structure"}
{"substance": "EriCoV RU15-1 RBD, His-tagged (for cryo-EM, BLI and SPR) (domain or fragment)", "values": [{"measurement": "share of the total particles that are the complex", "value": 5, "unit": "%"}]}
